Measurements as given in IntAct's records for PubMed 25910212.

B1: Beta-crystallin A4 (Homo sapiens), P53673 (parent)
chain: MTLQCTKSAGPWKMVVWDEDGFQGRRHEFTAECPSVLELGFETVRSLKVLSGAWVGFEHAGFQGQQYILERGEYPSWDAWGGNTAYPAERLTSFRPAACANHRDSRLTIFEQENFLGKKGELSDDYPSLQAMGWEGNEVGSFHVHSGAWVCSQFPGYRGFQYVLECDHHSGDYKHFREWGSHAPTFQVQSIRRIQQ
partner: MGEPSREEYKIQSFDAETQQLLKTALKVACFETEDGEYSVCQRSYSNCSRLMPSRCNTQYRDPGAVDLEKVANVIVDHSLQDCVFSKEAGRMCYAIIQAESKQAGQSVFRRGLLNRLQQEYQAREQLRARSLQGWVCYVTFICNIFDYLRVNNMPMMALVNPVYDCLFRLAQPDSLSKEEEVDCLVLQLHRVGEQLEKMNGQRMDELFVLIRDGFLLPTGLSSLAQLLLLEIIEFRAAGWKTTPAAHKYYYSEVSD
B2: AMP deaminase 3 (Homo sapiens), Q01432 (parent)
chain: MPRQFPKLNISEVDEQVRLLAEKVFAKVLREEDSKDALSLFTVPEDCPIGQKEAKERELQKELAEQKSVETAKRKKSFKMIRSQSLSLQMPPQQDWKGPPAASPAMSPTTPVVTGATSLPTPAPYAMPEFQRVTISGDYCAGITLEDYEQAAKSLAKALMIREKYARLAYHRFPRITSQYLGHPRADTAPPEEGLPDFHPPPLPQEDPYCLDDAPPNLDYLVHMQGGILFVYDNKKMLEHQEPHSLPYPDLETYTVDMSHILALITDGPTKTYCHRRLNFLESKFSLHEMLNEMSEFKELKSNPHRDFYNVRKVDTHIHAAACMNQKHLLRFIKHTYQTEPDRTVAEKRGRKITLRQVFDGLHMDPYDLTVDSLDVHAGRQTFHRFDKFNSKYNPVGASELRDLYLKTENYLGGEYFARMVKEVARELEESKYQYSEPRLSIYGRSPEEWPNLAYWFIQHKVYSPNMRWIIQVPRIYDIFRSKKLLPNFGKMLENIFLPLFKATINPQDHRELHLFLKYVTGFDSVDDESKHSDHMFSDKSPNPDVWTSEQNPPYSYYLYYMYANIMVLNNLRRERGLSTFLFRPHCGEAGSITHLVSAFLTADNISHGLLLKKSPVLQYLYYLAQIPIAMSPLSNNSLFLEYSKNPLREFLHKGLHVSLSTDDPMQFHYTKEALMEEYAIAAQVWKLSTCDLCEIARNSVLQSGLSHQEKQKFLGQNYYKEGPEGNDIRKTNVAQIRMAFRYETLCNELSFLSDAMKSEEITALTN
B3: Neutrophil cytosol factor 1 (Homo sapiens), P14598 (parent)
chain: MGDTFIRHIALLGFEKRFVPSQHYVYMFLVKWQDLSEKVVYRRFTEIYEFHKTLKEMFPIEAGAINPENRIIPHLPAPKWFDGQRAAENRQGTLTEYCSTLMSLPTKISRCPHLLDFFKVRPDDLKLPTDNQTKKPETYLMPKDGKSTATDITGPIILQTYRAIANYEKTSGSEMALSTGDVVEVVEKSESGWWFCQMKAKRGWIPASFLEPLDSPDETEDPEPNYAGEPYVAIKAYTAVEGDEVSLLEGEAVEVIHKLLDGWWVIRKDDVTGYFPSMYLQKSGQDVSQAQRQIKRGAPPRRSSIRNAHSIHQRSRKRLSQDAYRRNSVRFLQQRRRQARPGPQSPGSPLEEERQTQRSKPQPAVPPRPSADLILNRCSESTKRKLASAV
B4: Nuclear receptor subfamily 0 group B member 1 (Homo sapiens), P51843 (parent)
chain: MAGENHQWQGSILYNMLMSAKQTRAAPEAPETRLVDQCWGCSCGDEPGVGREGLLGGRNVALLYRCCFCGKDHPRQGSILYSMLTSAKQTYAAPKAPEATLGPCWGCSCGSDPGVGRAGLPGGRPVALLYRCCFCGEDHPRQGSILYSLLTSSKQTHVAPAAPEARPGGAWWDRSYFAQRPGGKEALPGGRATALLYRCCFCGEDHPQQGSTLYCVPTSTNQAQAAPEERPRAPWWDTSSGALRPVALKSPQVVCEAASAGLLKTLRFVKYLPCFQVLPLDQQLVLVRNCWASLLMLELAQDRLQFETVEVSEPSMLQKILTTRRRETGGNEPLPVPTLQHHLAPPAEARKVPSASQVQAIKCFLSKCWSLNISTKEYAYLKGTVLFNPDVPGLQCVKYIQGLQWGTQQILSEHTRMTHQGPHDRFIELNSTLFLLRFINANVIAELFFRPIIGTVSMDDMMLEMLCTKI

Variants of: B1
Conditions: with MIF4GD

effect of a mutation on the interaction | Variant
disrupting interaction strength | F94S
disrupting interaction strength | L69P

Variants of: B2
Conditions: with hs90b_human HSP90AB1, P08238
Sequence of hs90b_human HSP90AB1, P08238 (P08238 whole entry): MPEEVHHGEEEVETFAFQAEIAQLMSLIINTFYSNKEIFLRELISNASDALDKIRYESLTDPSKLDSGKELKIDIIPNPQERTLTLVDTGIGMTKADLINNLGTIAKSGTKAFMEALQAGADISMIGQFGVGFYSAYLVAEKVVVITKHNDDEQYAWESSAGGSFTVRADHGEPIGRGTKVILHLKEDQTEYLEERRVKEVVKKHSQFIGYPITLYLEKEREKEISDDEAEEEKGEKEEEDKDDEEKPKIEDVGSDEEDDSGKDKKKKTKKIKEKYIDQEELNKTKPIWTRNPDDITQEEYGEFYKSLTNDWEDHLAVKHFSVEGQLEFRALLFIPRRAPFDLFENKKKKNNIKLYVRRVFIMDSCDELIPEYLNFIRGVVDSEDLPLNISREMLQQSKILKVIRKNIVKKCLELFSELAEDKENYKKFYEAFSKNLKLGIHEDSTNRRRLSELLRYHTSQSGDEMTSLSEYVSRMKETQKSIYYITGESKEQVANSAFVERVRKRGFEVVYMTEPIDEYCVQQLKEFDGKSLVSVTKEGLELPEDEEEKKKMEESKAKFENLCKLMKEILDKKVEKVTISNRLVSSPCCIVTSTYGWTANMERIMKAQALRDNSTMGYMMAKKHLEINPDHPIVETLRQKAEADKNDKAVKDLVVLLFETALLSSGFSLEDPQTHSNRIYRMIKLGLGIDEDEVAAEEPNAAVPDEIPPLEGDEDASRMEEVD

effect of a mutation on the interaction | Variant
increasing interaction strength | W450R
increasing interaction strength | A320V

Variants of: B3
Conditions: with hsp7c_human HSPA8, P11142
Sequence of hsp7c_human HSPA8, P11142 (P11142 whole entry, looked up): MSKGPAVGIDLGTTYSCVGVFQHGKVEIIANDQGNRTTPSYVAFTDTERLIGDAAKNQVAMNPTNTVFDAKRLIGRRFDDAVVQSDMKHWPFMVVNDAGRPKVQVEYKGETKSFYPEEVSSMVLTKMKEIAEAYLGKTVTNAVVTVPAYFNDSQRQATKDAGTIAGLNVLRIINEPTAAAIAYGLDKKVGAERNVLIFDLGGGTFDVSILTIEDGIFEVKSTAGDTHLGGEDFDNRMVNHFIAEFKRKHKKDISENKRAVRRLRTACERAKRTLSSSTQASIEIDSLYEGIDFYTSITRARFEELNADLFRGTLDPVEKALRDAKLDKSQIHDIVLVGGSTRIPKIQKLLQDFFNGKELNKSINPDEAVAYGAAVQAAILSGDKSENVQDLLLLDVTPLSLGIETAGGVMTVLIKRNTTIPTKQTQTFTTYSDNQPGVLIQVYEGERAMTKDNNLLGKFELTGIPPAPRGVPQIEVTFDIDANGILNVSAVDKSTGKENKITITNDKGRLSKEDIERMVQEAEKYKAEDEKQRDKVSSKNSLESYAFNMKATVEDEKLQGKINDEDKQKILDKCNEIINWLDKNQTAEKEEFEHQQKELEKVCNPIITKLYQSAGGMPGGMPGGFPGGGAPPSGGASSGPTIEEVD

effect of a mutation on the interaction | Variant
with no effect | T53A

Variants of: B4
Conditions: with stf1_human NR5A1, Q13285
Sequence of stf1_human NR5A1, Q13285 (Q13285 whole entry): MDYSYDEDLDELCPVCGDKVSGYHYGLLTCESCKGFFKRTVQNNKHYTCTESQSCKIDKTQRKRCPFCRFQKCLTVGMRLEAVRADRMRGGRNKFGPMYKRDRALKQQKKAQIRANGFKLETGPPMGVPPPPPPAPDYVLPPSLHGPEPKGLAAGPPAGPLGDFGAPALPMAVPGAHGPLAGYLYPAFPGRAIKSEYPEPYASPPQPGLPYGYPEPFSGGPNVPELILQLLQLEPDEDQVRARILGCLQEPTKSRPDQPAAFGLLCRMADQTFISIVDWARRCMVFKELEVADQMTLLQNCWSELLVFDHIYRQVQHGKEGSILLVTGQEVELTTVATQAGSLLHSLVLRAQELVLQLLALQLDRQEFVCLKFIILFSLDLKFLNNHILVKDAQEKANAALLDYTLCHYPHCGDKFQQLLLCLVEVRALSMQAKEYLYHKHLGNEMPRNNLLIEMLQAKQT

effect of a mutation on the interaction | Variant
with no effect | W105C
